The text below walks through data of US20220259318A1 (Hoffmann-La Roche, published 2022).

For orientation: EC50 means the concentration giving half of the maximal effect. Low readings indicate higher potency in that assay, high ones lower potency in that assay.

Where a chain is given by its changes, count along the chain named. Values joined by “and” are separate entries in the source; they are usually repeats but may differ in a detail not shown here. Identical values can stand only once. Like-named read-outs stand apart in the source and are kept apart here.

For experiment [1], the target named is T1, human GPRC5D (human, UniProt Q9NZD1 1-345). The experiment is described as follows: cell-based or functional assay.
T1 sequence (Q9NZD1 whole entry): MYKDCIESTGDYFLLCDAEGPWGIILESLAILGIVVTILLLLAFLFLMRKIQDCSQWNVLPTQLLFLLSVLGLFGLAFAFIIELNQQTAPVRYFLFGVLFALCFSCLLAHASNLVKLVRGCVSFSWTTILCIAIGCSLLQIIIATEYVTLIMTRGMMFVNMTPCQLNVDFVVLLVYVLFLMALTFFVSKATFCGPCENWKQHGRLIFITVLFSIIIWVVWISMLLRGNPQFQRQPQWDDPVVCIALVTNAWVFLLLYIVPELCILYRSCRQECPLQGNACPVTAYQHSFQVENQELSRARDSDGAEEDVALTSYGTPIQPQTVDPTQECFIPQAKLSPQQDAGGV
Experiment [2] deals with T1, human GPRC5D. The experiment is described as follows: cell-based or functional assay. This is another data set of the same source.
Experiment [3] deals with T1, human GPRC5D. Briefly: cell-based or functional assay. The source holds these as a separate data set.
The target in experiment [4] is T1, human GPRC5D. Briefly: cell-based or functional assay. This is another data set of the same source.
For experiment [5], the target named is T1, human GPRC5D. The experiment is described as follows: cell-based or functional assay. This is another data set of the same source.
Experiment [6] addresses T1, human GPRC5D. The experiment is described as follows: cell-based or functional assay. The source holds these as a separate data set.
For experiment [7], the target named is T1, human GPRC5D. Briefly: cell ELISA, CHO hu GPRC5D (EC/IC50 rel). The gist of the method: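 Stably transfected CHO cells seeded overnight, then incubated 2 h at 4° C with antibody IgGs in 15-point 1:3 dilutions from 30 μg/ml. Cells fixed with 0.05% glutaraldehyde; binding detected with HRP anti-human Ig and TMB, absorbance at 370/492 nm.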
On the technique in general: In an ELISA, binding on a coated surface is turned into a signal by an enzyme label.

Experiment [8] has as its target T1, human GPRC5D. Briefly: cell-based or functional assay. This is another data set of the same source.

B1: ET150-5-TCB (bispecific antibody, human IgG1, lambda, L234A L235A)
light 1: QSVLTQPPSASGTPGQRVTISCSGSRSNVGGNYVFWYQQVPGATPKLLIYRSNQRPSGVPDRFAGSKSGSSASLAISGLRSEDEADYYCATWDDSLSGFVFGTGTKVTVLGQPKAAPSVTLFPPSSKKLQANKATLVCLISDFYPGAVTVAWKADSSPVKAGVETTTPSKQSNNKYAASSYLSLTPEQWKSHRSYSCQVTHEGSTVEKTVAPTECS
light 2: EVQLLESGGGLVQPGGSLRLSCAASGFTFSTYAMNWVRQAPGKGLEWVSRIRSKYNNYATYYADSVKGRFTISRDDSKNTLYLQMNSLRAEDTAVYYCVRHGNFGNSYVSWFAYWGQGTLVTVSSASVAAPSVFIFPPSDEQLKSGTASVVCLLNNFYPREAKVQWKVDNALQSGNSQESVTEQDSKDSTYSLSSTLTLSKADYEKHKVYACEVTHQGLSSPVTKSFNRGEC
heavy 1: EVQLVESGGGLVKPGGSLRLSCAASGFTFSDYYMSWIRQAPGKGLEWVSYISSSGSTIYYADSVKGRFTISRDNAKNSLYLQMNSLRAEDTAVYYCARGYGKAYDQWGQGTLVTVSSASTKGPSVFPLAPSSKSTSGGTAALGCLVEDYFPEPVTVSWNSGALTSGVHTFPAVLQSSGLYSLSSVVTVPSSSLGTQTYICNVNHKPSNTKVDEKVEPKSCDKTHTCPPCPAPEAAGGPSVFLFPPKPKDTLMISRTPEVTCVVVDVSHEDPEVKFNWYVDGVEVHNAKTKPREEQYNSTYRVVSVLTVLHQDWLNGKEYKCKVSNKALGAPIEKTISKAKGQPREPQVCTLPPSRDELTKNQVSLSCAVKGFYPSDIAVEWESNGQPENNYKTTPPVLDSDGSFFLVSKLTVDKSRWQQGNVFSCSVMHEALHNHYTQKSLSLSPGK
heavy 2: not shown
As to B1, in experiment [1], the “EC50 of anti-GPRC5D-TCB mediated killing, AMO-1” value was determined as 0.0835 nM; the “EC50 of anti-GPRC5D-TCB mediated killing, L363” value amounted to 0.768 nM; the “EC50 of anti-GPRC5D-TCB mediated killing, NCI-H929” value was determined as 0.833 nM; the “EC50 of anti-GPRC5D-TCB mediated killing, RPMI-8226” value amounted to 0.797 nM.

B2: B72-TCB (bispecific antibody, human IgG1, kappa, L234A L235A)
heavy 1: not shown
light 1: B1 light 2 with L5V, S30N, S49A, D64A, T80S, R89K, A90T, V99A
heavy 2: QVQLVQSGAEVKKPGASVKVSCKASGYSFTGYTMNWVRQAPGQGLEWMGLINPYNSDTNYAQKLQGRVTMTTDTSTSTAYMELRSLRSDDTAVYYCARVALRVALDYWGQGTLVTVSSASTKGPSVFPLAPSSKSTSGGTAALGCLVEDYFPEPVTVSWNSGALTSGVHTFPAVLQSSGLYSLSSVVTVPSSSLGTQTYICNVNHKPSNTKVDEKVEPKSCDKTHTCPPCPAPEAAGGPSVFLFPPKPKDTLMISRTPEVTCVVVDVSHEDPEVKFNWYVDGVEVHNAKTKPREEQYNSTYRVVSVLTVLHQDWLNGKEYKCKVSNKALGAPIEKTISKAKGQPREPQVCTLPPSRDELTKNQVSLSCAVKGFYPSDIAVEWESNGQPENNYKTTPPVLDSDGSFFLVSKLTVDKSRWQQGNVFSCSVMHEALHNHYTQKSLSLSPGK
light 2: DIQMTQSPSSLSASVGDRVTITCKASQNVATHVGWYQQKPGKAPKRLIYSASYRYSGVPSRFSGSGSGTEFTLTISNLQPEDFATYYCQQYNRYPYTFGQGTKLEIKRTVAAPSVFIFPPSDRKLKSGTASVVCLLNNFYPREAKVQWKVDNALQSGNSQESVTEQDSKDSTYSLSSTLTLSKADYEKHKVYACEVTHQGLSSPVTKSFNRGEC
In the case of B2, in experiment [2], the “EC50 (pM), TCB-mediated tumor cell lysis, AMO-1” value worked out at 79.9 pM; the “EC50 (pM), TCB-mediated tumor cell lysis, IM-9” value was determined as 198 pM; the “EC50 (pM), TCB-mediated tumor cell lysis, LP-1” value is 49 pM; the “EC50 (pM), TCB-mediated tumor cell lysis, NCI-H929” value stood at 26.9 pM. In experiment [3], the “AUC, TCB-mediated tumor cell lysis, AMO-1” value stood at 5.45e+07; the “AUC, TCB-mediated tumor cell lysis, IM-9” value stood at 8.6e+06; the “AUC, TCB-mediated tumor cell lysis, LP-1” value was found to be 1.15e+07; the “AUC, TCB-mediated tumor cell lysis, NCI-H929” value worked out at 1.09e+07. In addition, in experiment [4], the “EC50 in vitro killing assay, AMO-1” value was 0.109 nM; the “EC50 in vitro killing assay, EJM” value came to 0.06 nM; the “EC50 in vitro killing assay, L363” value is 0.058 nM; the “EC50 in vitro killing assay, MOLP-2” value was 0.124 nM. In experiment [4], the “EC50 in vitro killing assay, NCI-H929” value came to 0.058 nM; the “EC50 in vitro killing assay, OPM-2” value stood at 0.171 nM; the “EC50 in vitro killing assay, RPMI” value is 0.193 nM.

B3: 5F11_P1AE5741 (antibody, V domains shown)
VH: EVQLVESGGGVVQPGRSLRLSCAASGFSFSNYGMAWVRQAPGKGLEWVASISTGGGNTYYRDSVKGRFTISRDNAKNTLYLQMNSLRAEDTAVYYCTRHDRGGLYWGQGTMVTVSS
VL: DIVMTQSPLSLPVTPGEPASISCRSSKSLLHSNGITYVYWYLQKPGQSPQLLIYRMSNRASGVPDRFSGSGSGTDFTLKISRVEAEDVGVYHCGQLLENPYTFGQGTKLEIK
notes: Humanized 5F11 IgG; PGLALA Fc implied by the CAR-J assay; also called 5F11_VH1b + 5F11_VL2a
Take B3: the “CAR-J2 EC50 [ng/mL] (PGLALA-CAR-J activation, L363 target cells)” value (from here on “CAR-J2 EC50 [ng/mL]”) in experiment [5] is 1.4 ng/mL. For the same molecule, the “EC50 values of CAR-J activation” value in experiment [6] was 1.4 ng/mL. For the same molecule, in experiment [7], the EC50 is 0.0067 µg/mL and 0.04 nM.

B4: P1AE5763 (antibody, V domains shown)
VH: B3 VH with V11L, R16G, R61A
VL: DIVMTQSPDSLAVSLGERATINCKSSKSLLHSNGITYVYWYQQKPGQPPKLLIYRMSNLASGVPDRFSGSGSGTDFTLTISSLQAEDVAVYHCGQLLENPYTFGQGTKLEIK
notes: Humanized 5F11 IgG; PGLALA Fc implied by the CAR-J assay; also called 5F11_VH2d + 5F11_VL2b
On to B4, for which the “CAR-J2 EC50 [ng/mL]” value in experiment [5] was found to be 5.47 ng/mL. Also, the “EC50 values of CAR-J activation” value in experiment [6] was 5.47 ng/mL. For the same molecule, in experiment [7], the EC50 is 0.006 µg/mL and 0.04 nM.

B5: 5F11_P1AE5745 (antibody, V domains shown)
VH: B3 VH with E1Q, R61A, A75S
VL: B3 VL with Q47K, L51V, R59L
notes: Humanized 5F11 IgG; PGLALA Fc implied by the CAR-J assay; also called 5F11_VH1c + 5F11_VL1b
For B5, the “CAR-J2 EC50 [ng/mL]” value in experiment [5] was found to be 1.62 ng/mL. Further, the “EC50 values of CAR-J activation” value in experiment [6] turned out to be 1.62 ng/mL. Besides, the EC50 in experiment [7] is 0.0097 µg/mL and 0.06 nM.

B6: P1AE5744 (antibody, V domains shown)
VH: B3 VH with E1Q, R61A, A75S
VL: B3 VL with L51V, R59L
notes: Humanized 5F11 IgG; PGLALA Fc implied by the CAR-J assay; also called 5F11_VH1c + 5F11_VL1a
On to B6, for which the “CAR-J2 EC50 [ng/mL]” value in experiment [5] came to 3.63 ng/mL. The “EC50 values of CAR-J activation” value in experiment [6] is 3.63 ng/mL. Further, the EC50 in experiment [7] is 0.0086 µg/mL and 0.06 nM.

B7: 5E11_P1AE5723 (antibody, V domains shown)
VH: EVQLLESGGGLVQPGGSLRLSCAASGFTFSKYAMAWVRQAPGKGLEWVASISTGGVNTYYADSVKGRFTISRDNSKNTLYLQMNSLRAEDTAVYYCATHTGDYFDYWGQGTMVTVSS
VL: EIVLTQSPGTLSLSPGERATLSCRASQSVSISGINLMNWYQQKPGQQPKLLIYHASILASGIPDRFSGSGSGTDFTLTISRLEPEDFAVYYCQQTRESPLTFGQGTRLEIK
notes: Humanized 5E11 IgG; PGLALA Fc implied by the CAR-J assay; also called 5E11_VH1c + 5E11_VL2b
For the molecule B7, the “CAR-J2 EC50 [ng/mL]” value in experiment [8] came out at 3.7 ng/mL. The “EC50 values of CAR-J activation” value in experiment [6] came to 3.7 ng/mL. Further, in experiment [7], the EC50 was 0.006 µg/mL and 0.04 nM.

B8: P1AE5730 (antibody, V domains shown)
VH: B7 VH with V2L, S75A
VL: DIQMTQSPSSLSASVGDRVTITCRASQSVSISGINLMNWYQQKPGKQPKLLIYHASILASGVPSRFSGSGSGTDFTLTISSLQPEDFATYYCQQTRESPLTFGQGTRLEIK
notes: Humanized 5E11 IgG; PGLALA Fc implied by the CAR-J assay; also called 5E11_VH1d + 5E11_VL3a
Take B8: the “CAR-J2 EC50 [ng/mL]” value in experiment [8] was found to be 3.5 ng/mL. Further, the “EC50 values of CAR-J activation” value in experiment [6] stood at 3.5 ng/mL. In experiment [7], the EC50 was 0.008 µg/mL and 0.05 nM.

B9: P1AE5718 (antibody, V domains shown)
VH: B7 VH with V2L, A61R, G66A, S75A
VL: B8 VL
notes: Humanized 5E11 IgG; PGLALA Fc implied by the CAR-J assay; also called 5E11_VH1b + 5E11_VL3a
In the case of B9, in experiment [8], the “CAR-J2 EC50 [ng/mL]” value was determined as 105 ng/mL. In experiment [6], the “EC50 values of CAR-J activation” value was 105 ng/mL. For the same molecule, the EC50 in experiment [7] was 0.0121 µg/mL and 0.08 nM.

B10: 5E11_P1AE5728 (antibody, V domains shown)
VH: B7 VH with V2L, S75A
VL: B7 VL with K49R
notes: Humanized 5E11 IgG; PGLALA Fc implied by the CAR-J assay; also called 5E11_VH1d + 5E11_VL2a
Consider B10, for which, in experiment [8], the “CAR-J2 EC50 [ng/mL]” value is 5.6 ng/mL. Besides, the “EC50 values of CAR-J activation” value in experiment [6] stood at 5.6 ng/mL. Also, the EC50 in experiment [7] is 0.0079 µg/mL and 0.05 nM.
